Measured values published in US20070036786A1 (published 2007).
Residue numbers refer to the chain shown, from its start.

B1: hu3G8VH-1/hu3G8VL-1 (antibody, human IgG1, kappa)
heavy: not shown
light: DIVMTQSPDSLAVSLGERATINCKASQSVDFDGDSFMNWYQQKPGQPPKLLIYTTSNLESGVPDRFSGSGSGTDFTLTISSLQAEDVAVYYCQQSNEDPYTFGQGTKLEIKRTVAAPSVFIFPPSDEQLKSGTASVVCLLNNFYPREAKVQWKVDNALQSGNSQESVTEQDSKDSTYSLSSTLTLSKADYEKHKVYACEVTHQGLSSPVTKSFNRGEC
notes: Heavy chain Hu3G8VH-1G1, light chain Hu3G8VL-1K; also called Hu3G8-1.1
B2: hu3G8VH-20/hu3G8VL-1 (antibody)
VH: QVTLRESGPALVKPTQTLTLTCTFSGFSLSTSGVGVGWIRQPPGKALEWLAHIWWDDDKRYSPSLKSRLTISKDTSKNQVVLTMTNMDPVDTATYYCARINPAWFAYWGQGTLVTVSS
light: B1 light
notes: VH fused to human Cγ1 constant region
B3: hu3G8VH-22/hu3G8VL-1 (antibody)
VH: QVTLRESGPALVKPTQTLTLTCTFSGFSLSTSGVGVGWIRQPPGKALEWLAHIWWDDDKRYSPSLKSRLTISKDTSKNQVVLTMTNMDPVDTATYYCARINPAYFAYWGQGTLVTVS
light: B1 light
notes: VH fused to human Cγ1 constant region (glycosylated form)
B4: hu3G8VH-28/hu3G8VL-1 (antibody)
VH: B2 VH with R99A, W104Y, A106D
light: B1 light
notes: as for B2
B5: hu3G8VH-17/hu3G8VL-1 (antibody)
VH: B2 VH with V34M, S62N, S64A, R99A
light: B1 light
notes: as for B2
B6: hu3G8VH-42/hu3G8VL-1 (antibody)
VH: B2 VH with V2I, R5K, A10T, S72T
light: B1 light
notes: as for B2
B7: hu3G8VH-19/hu3G8VL-1 (antibody)
VH: B2 VH with V34M, S62N, S64A, R99Q, W104Y
light: B1 light
notes: as for B2
B8: hu3G8VH-16/hu3G8VL-1 (antibody)
VH: B2 VH with V34M, S62N, S64A, R99K
light: B1 light
notes: as for B2
B9: hu3G8VH-35/hu3G8VL-1 (antibody)
VH: B2 VH with V2I, R5K, A10T, R99Q, W104Y
light: B1 light
notes: as for B2
B10: hu3G8VH-30/hu3G8VL-1 (antibody)
VH: B2 VH with R99Q, W104Y, A106D
light: B1 light
notes: as for B2
B11: hu3G8VH-18/hu3G8VL-1 (antibody)
VH: B2 VH with V34M, S62N, S64A, R99H
light: B1 light
notes: as for B2
B12: hu3G8VH-45/hu3G8VL-1 (antibody)
VH: B2 VH with V2I, R5K, A10T, S72T, R99Q, W104Y, A106D
light: B1 light
notes: as for B2
B13: hu3G8VH-8/hu3G8VL-1 (antibody)
VH: B2 VH with V34M, S62N, S64A, W104Y
light: B1 light
notes: as for B2
B14: hu3G8VH-24/hu3G8VL-1 (antibody)
VH: B2 VH with R99A, W104Y
light: B1 light
notes: as for B2
B15: hu3G8VH-27/hu3G8VL-1 (antibody)
VH: B2 VH with R99K, W104Y, A106D
light: B1 light
notes: as for B2
B16: hu3G8VH-29/hu3G8VL-1 (antibody)
VH: B2 VH with R99H, W104Y, A106D
light: B1 light
notes: as for B2
B17: hu3G8VH-40/hu3G8VL-1 (antibody)
VH: B2 VH with V2I, R5K, A10T, W54F
light: B1 light
notes: as for B2
B18: hu3G8VH-44/hu3G8VL-1 (antibody)
VH: B2 VH with V2I, R5K, A10T, S72T, R99H, W104Y, A106D
light: B1 light
notes: as for B2
B19: hu3G8VH-34/hu3G8VL-1 (antibody)
VH: B2 VH with V2I, R5K, A10T, W104Y
light: B1 light
notes: as for B2
B20: hu3G8VH-12/hu3G8VL-1 (antibody)
VH: B2 VH with V34M
light: B1 light
notes: as for B2
B21: hu3G8VH-26/hu3G8VL-1 (antibody)
VH: B2 VH with R99Q, W104Y
light: B1 light
notes: as for B2
B22: hu3G8VH-14/hu3G8VL-1 (antibody)
VH: B2 VH with V34M, D56N, S62N, S64A
light: B1 light
notes: as for B2
B23: hu3G8VH-5/hu3G8VL-1 (antibody)
VH: B2 VH with V34M, S62N, S64A, R99Q
light: B1 light
notes: VH fused to human Cγ1 constant region (glycosylated form); also called Hu3G8-5.1
B24: hu3G8VH-36/hu3G8VL-1 (antibody)
VH: B2 VH with V2I, R5K, A10T, H52L, R99Q, W104Y, A106D
light: B1 light
notes: as for B2
B25: hu3G8VH-43/hu3G8VL-1 (antibody)
VH: B2 VH with V2I, R5K, A10T, S72T, W104Y
light: B1 light
notes: as for B2
B26: hu3G8VH-4/hu3G8VL-1 (antibody)
VH: B2 VH with V34M, S62N, S64A, R99Q, A106D
light: B1 light
notes: as for B2
B27: hu3G8VH-31/hu3G8VL-1 (antibody)
VH: B2 VH with V2I, R5K, A10T
light: B1 light
notes: as for B2
B28: hu3G8VH-2/hu3G8VL-1 (antibody)
VH: B2 VH with R5K, V34M, S62N, S64A
light: B1 light
notes: as for B2
B29: hu3G8VH-23/hu3G8VL-1 (antibody)
VH: B2 VH with R99K, W104Y
light: B1 light
notes: as for B2
B30: hu3G8VH-3/hu3G8VL-1 (antibody)
VH: B2 VH with S30R, V34M, S62N, S64A
light: B1 light
notes: as for B2
B31: hu3G8VH-37/hu3G8VL-1 (antibody)
VH: B2 VH with V2I, R5K, A10T, H52L, R99K, W104Y
light: B1 light
notes: as for B2
B32: hu3G8VH-6/hu3G8VL-1 (antibody)
VH: B2 VH with S62N, S64A, A106D
light: B1 light
notes: as for B2
B33: hu3G8VH-25/hu3G8VL-1 (antibody)
VH: B2 VH with R99H, W104Y
light: B1 light
notes: as for B2
B34: chimeric 3G8 antibody (ch3G8VH/ch3G8VL) (antibody, V domains shown)
VH: QVTLKESGPGILQPSQTLSLTCSFSGFSLRTSGMGVGWIRQPSGKGLEWLAHIWWDDDKRYNPALKSRLTISKDTSSNQVFLKIASVDTADTATYYCAQINPAWFAYWGQGTLVTVSS
VL: DTVLTQSPASLAVSLGQRATISCKASQSVDFDGDSFMNWYQQKPGQPPKLLIYTTSNLESGIPARFSASGSGTDFTLNIHPVEEEDTATYYCQQSNEDPYTFGGGTKLEIK
notes: Mouse 3G8 variable domains (VH FR4 ala to ser) on human Cγ1 and Cκ constant regions; also called ch3G8-γ1

Target: T1, soluble human CD16A (sCD16A) (human, UniProt P08637 17-203)
T1 construct: CD16A truncated just prior to the transmembrane region, expressed in HEK-293; The last seven residues come from vector pCDNA3.1; also called soluble form of human CD16A
Assay: ELISA, captured sCD16A
Protocol: The plate was washed and dilutions of recombinant antibodies starting at 0.5 μg/ml in PBS-T-BSA were then added and incubated for 1 hr at room temp. Binding of recombinant antibodies to the captured sCD16A was then measured using an anti-human IgG-HRP conjugate and TMB substrate. After stopping color development using dilute sulfuric acid, the plate was read at 450 nm.

T1 sequence (P08637 other isoform, or with tags, fused parts or gaps limits assumed): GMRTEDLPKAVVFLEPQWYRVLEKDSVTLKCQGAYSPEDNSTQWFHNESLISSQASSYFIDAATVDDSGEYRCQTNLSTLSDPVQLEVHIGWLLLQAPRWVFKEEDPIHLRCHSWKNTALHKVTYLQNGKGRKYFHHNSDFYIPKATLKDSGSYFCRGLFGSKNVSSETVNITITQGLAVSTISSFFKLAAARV

Binding result, binds:
B1
B2
B3
B4
B5
B6
B7
B8
B9
B10
B11
B12
B13
B14
B15
B16
B17
B18
B19
B20
B21
B22
B23
B24
B25
B26
B27
B28
B29
B30
B31
B32
B33
B34
